Data on two proteins can be found in US20190065668.

The series addresses fluorogenic KAHRP PEXEL peptide DABCYL-…-E-EDANS.

B1: recombinant P. vivax plasmepsin V (residues R35-R476), N-terminal fusion tag removed with TEV protease (protein)
chain: GTRSESTEGHSKDLLYKYKLYGDIDEYAYYFLDIDIGTPEQRISLILDTGSSSLSFPCAGCKNCGVHMENPFNLNNSKTSSILYCENEECPFKLNCVKGKCEYMQSYCEGSQISGFYFSDVVSVVSYNNERVTFRKLMGCHMHEESLFLYQQATGVLGMSLSKPQGIPTFVNLLFDNAPQLKQVFTICISENGGELIAGGYDPAYIVRRGGSKSVSGQGSGPVSESLSESGEDPQVALREAEKVVWENVTRKYYYYIKVRGLDMFGTNMMSSSKGLEMLVDSGSTFTHIPEDLYNKLNYFFDILCIQDMNNAYDVNKRLKMTNESFNNPLVQFDDFRKSLKSIIAKENMCVKIVDGVQCWKYLEGLPDLFVTLSNNYKMKWQPHSYLYKKESFWCKGIEKQVNNKPILGLTFFKNRQVIFDIQKNRIGFVDANCPSHPTHTRPR
On to B1, for which the Km – broadly, the concentration of substrate that gives half-maximal velocity – was 20.2 µM and 6.0 µM for the P. falciparum and P. vivax enzymes, respectively; the “cleavage of the fluorogenic peptide” value was “demonstrated specific activity against the PEXEL substrates and cleaved the peptides after the P1 Leucine residue as expected”.

B2: recombinant P. falciparum plasmepsin V (residues N80-R528) (protein)
chain: NASSDLYKYKLYGDIDEYAYYFLDIDIGKPSQRISLILDTGSSSLSFPCNGCKDCGIHMEKPYNLNYSKTSSILYCNKSNCPYGLKCVGNKCEYLQSYCEGSQIYGFYFSDIVTLPSYNNKNKISFEKLMGCHMHEESLFLHQQATGVLGFSLTKPNGVPTFVDLLFKHTPSLKPIYSICVSEHGGELIIGGYEPDYFLSNQKEKQKMDKSDNNSSNKGNVSIKLKNNDKNDDEENNSKDVIVSNNVEDIVWQAITRKYYYYIKIYGLDLYGTNIMDKKELDMLVDSGSTFTHIPENIYNQINYYLDILCIHDMTNIYEINKRLKLTNESLNKPLVYFEDFKTALKNIIQNENLCIKIVDGVQCWKSLENLPNLYITLSNNYKMIWKPSSYLYKKESFWCKGLEKQVNNKPILGLTFFKNKQVIFDLQQNQIAFIESKCPSNLTSSRPR
Regarding B2, the Km is 20.2 µM and 6.0 µM for the P. falciparum and P. vivax enzymes, respectively; the “cleavage of the fluorogenic peptide” value was “demonstrated specific activity against the PEXEL substrates and cleaved the peptides after the P1 Leucine residue as expected”.
